Measured values from paper PMC11917138, “A naturally occurring standalone TrpB enzyme provides insights into allosteric communication within tryptophan synthase” (Protein Science : A Publication of the Protein Society, 2025).
Values belong to the molecule of their own block, whether it stands above or below them.

What was measured:
[1] = molecular target: plTrpB, tryptophan synthase β subunit (TrpB) from Pelodictyon luteolum (Pelodictyon luteolum)
[2] = molecular target: plTrpB‐con, plTrpB with the six LBCA-Res6 residues replaced by consensus residues (Pelodictyon luteolum)
[3] = molecular target: plTrpB, tryptophan synthase β subunit (TrpB) from Pelodictyon luteolum (Pelodictyon luteolum); remark: listed apart in the source
[4] = molecular target: plTrpB‐con, plTrpB with the six LBCA-Res6 residues replaced by consensus residues (Pelodictyon luteolum); remark: listed apart in the source
[5] = molecular target: plTrpB, tryptophan synthase β subunit (TrpB) from Pelodictyon luteolum (Pelodictyon luteolum); assay: activity titration; apparent Kd; varying plTrpA added to 2 μM plTrpB or plTrpB-con, TrpB reaction rate read at 290 nm; 30°C, 50 mM potassium phosphate pH 7.5, 180 mM KCl, 40 μM PLP, 75 mM L-serine, 1 mM indole; hyperbolic fit; duplicates
[6] = molecular target: plTrpB‐con, plTrpB with the six LBCA-Res6 residues replaced by consensus residues (Pelodictyon luteolum); assay: as above
[7] = molecular target: plTrpB, tryptophan synthase β subunit (TrpB) from Pelodictyon luteolum (Pelodictyon luteolum); assay: SEC; analytical SEC, Superdex200 increase 10/300 GL; plTrpA 75 μM, plTrpB or plTrpB-con 50 μM, alone or mixed; 50 mM potassium phosphate pH 7.5, 300 mM KCl, 75 mM L-serine, 25°C
[8] = substrate: c1ccc2[nH]ccc2c1; assay: purified protein; type: biochemical, Pelodictyon luteolum; details: saturating L-serine, 50 mM potassium phosphate pH 7.5, 180 mM KCl, 40 μM PLP, 30°C
[9] = 1.5-fold molar excess of plTrpA

B1: plTrpB (Pelodictyon luteolum DSM 273) (protein)
chain: MSTTAYSAPDSAGKFGAFGGRFTPETLMQNAAGLEAEYLKAKSDPEFQRTLEGLLGDYVGRPTPLYHAEGLSGMLGGAEVWLKREDLCHTGAHKINNALGQVLLARRMGKRRVIAETGAGQHGVATATVCALFNLQCVVYMGEEDIRRQAPNVARMKLLGAEVRPVSSGSRTLKDATSEAIRDWMNNPEETFYIIGSVVGMHPYPMIVRDFQAVIGRETRRQILDKAGRLPDVITACIGGGSNAVGMFYDFLPDAGSIELIGVEAAGEGLDRRHAASLTMGSPGVLHGAMTMLLQNEDGQIQEAHSISAGLDYPGVGPEHCHLQELGLVKYTSVTDADALSALRTLAETEGIICALESAHAVRYAITRAPEMAKDKIIIVNLSGRGDKDMGTIMEELNL
notes: full-length, C-terminal His6-tag kept, codon-optimized gene in pET21a, E. coli BL21 Gold (DE3); beta-beta dimer
- Km ([8]; no plTrpA): 39 ± 7 µM
- kcat ([8]; no plTrpA): 0.35 ± 0.02 s⁻¹
- kcat/Km ([8]; no plTrpA): 8970 ± 1720 M⁻¹ s⁻¹

B2: plTrpA:plTrpB (Pelodictyon luteolum DSM 273) (protein)
chain: B1 chain
notes: both full-length with C-terminal His6-tag, E. coli BL21 Gold (DE3); alpha-beta-beta-alpha complex, partly formed; with Tryptophan synthase alpha chain
- Km [8, 9]: 65 ± 7 µM
- kcat [8, 9]: 0.93 ± 0.21 s⁻¹
- kcat/Km [8, 9]: 14300 ± 3510 M⁻¹ s⁻¹

Continued, values first:

- k cat of the TrpB reaction of plTrpB with a 1.5-fold molar excess of plTrpA, 30°C [1]: 0.93 s⁻¹
- k cat of the TrpB reaction of plTrpB-con with a 1.5-fold molar excess of plTrpA, 30°C [2]: 0.21 s⁻¹
- fold activation of k cat of plTrpB by plTrpA [3]: 2.7 fold
- fold activation of k cat/K M ^Ind of plTrpB by plTrpA [3]: 1.6 fold
- fold activation of k cat/K M ^Ser of plTrpB by plTrpA [3]: 9.8 fold
- fold activation of k cat of plTrpB-con by plTrpA [4]: 23 fold
- fold activation of k cat/K M ^Ind of plTrpB-con by plTrpA [4]: 3.6 fold
- fold activation of k cat/K M ^Ser of plTrpB-con by plTrpA [4]: > 10000 fold
- Kd [5]: 8.5 µM
- Kd [6]: 9.9 µM
Molecule: plTrpA, tryptophan synthase α subunit (TrpA) from Pelodictyon luteolum (from UniProt A0A1G7SSP5 1-275) (enzyme)

- stoichiometry N [7]: 2
Molecule: plTrpB, tryptophan synthase β subunit (TrpB) from Pelodictyon luteolum (from UniProt A0A1G7SST0 1-406) (enzyme)
